B1: UBXN7-SBP (natural protein, human, UniProt O94888 1-489, looked up)
chain: MAAHGGSAASSALKGLIQQFTTITGASESVGKHMLEACNNNLEMAVTMFLDGGGIAEEPSTSSASVSTVRPHTEEEVRAPIPQKQEILVEPEPLFGAPKRRRPARSIFDGFRDFQTETIRQEQELRNGGAIDKKLTTLADLFRPPIDLMHKGSFETAKECGQMQNKWLMINIQNVQDFACQCLNRDVWSNEAVKNIIREHFIFWQVYHDSEEGQRYIQFYKLGDFPYVSILDPRTGQKLVEWHQLDVSSFLDQVTGFLGEHGQLDGLSSSPPKKCARSESLIDASEDSQLEAAIRASLQETHFDSTQTKQDSRSDEESESELFSGSEEFISVCGSDEEEEVENLAKSRKSPHKDLGHRKEENRRPLTEPPVRTDPGTATNHQGLPAVDSEILEMPPEKADGVVEGIDVNGPKAQLMLRYPDGKREQITLPEQAKLLALVKHVQSKGYPNERFELLTNFPRRKLSHLDYDITLQEAGLCPQETVFVQERN
notes: UBXN7, human, wild type; also called SBP-tagged version of UBXN7; homolog of Ubx5; source: E. coli BL21 CodonPlus (DE3) RIPL, purified (Ni-NTA, SEC); not shown: SBP, C-terminal, kept

How the values were obtained:
Conditions in all cases: both partners purified
Human p97 ATPase = molecular target: T1, Human p97 ATPase (human, UniProt P55072 1-806); test: pull-down; 1 µM UBXN7-SBP on streptavidin agarose with 1 µM p97, 1 µM human UN, 1 µM Yod1-C160S and 1 µM Ub(n)-TAIL, SEC buffer, 5 mM ATPγS, 1 h, 4 °C; eluted with 2 mM biotin; Coomassie
T1 construct: p97 (VCP), human, wild type; also called VCP; homolog of Cdc48; source: E. coli BL21 CodonPlus (DE3) RIPL, purified (Ni-NTA, SEC)
T1 sequence (P55072 whole entry): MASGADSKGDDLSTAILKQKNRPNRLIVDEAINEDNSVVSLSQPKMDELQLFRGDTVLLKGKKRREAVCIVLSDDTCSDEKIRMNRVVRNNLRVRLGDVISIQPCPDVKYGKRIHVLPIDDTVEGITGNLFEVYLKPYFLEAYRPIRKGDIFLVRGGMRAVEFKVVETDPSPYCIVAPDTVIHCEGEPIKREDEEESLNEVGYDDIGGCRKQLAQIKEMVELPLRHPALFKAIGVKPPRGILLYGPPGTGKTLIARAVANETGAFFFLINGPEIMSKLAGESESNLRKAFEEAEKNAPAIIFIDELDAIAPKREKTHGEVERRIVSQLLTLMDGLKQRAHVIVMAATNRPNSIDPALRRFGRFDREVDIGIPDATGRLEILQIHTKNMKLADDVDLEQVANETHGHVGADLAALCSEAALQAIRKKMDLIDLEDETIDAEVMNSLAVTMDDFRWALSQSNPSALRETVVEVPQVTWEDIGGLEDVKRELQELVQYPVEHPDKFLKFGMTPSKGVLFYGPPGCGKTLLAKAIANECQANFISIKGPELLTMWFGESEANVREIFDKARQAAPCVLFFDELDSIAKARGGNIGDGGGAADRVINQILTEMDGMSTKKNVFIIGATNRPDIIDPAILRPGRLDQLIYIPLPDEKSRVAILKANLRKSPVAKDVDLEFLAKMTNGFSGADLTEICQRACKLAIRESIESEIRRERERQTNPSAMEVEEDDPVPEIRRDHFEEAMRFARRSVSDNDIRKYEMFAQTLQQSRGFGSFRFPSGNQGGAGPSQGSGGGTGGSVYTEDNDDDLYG

human Npl4 = molecular target: T2, human Npl4 (human, UniProt Q8TAT6 1-608); test: as above
T2 construct: Npl4, human; The plasmid paragraph tells of Npl4 in pET21 with a C-terminal His6 or FLAG-His6 tag and the purification paragraph of an untagged UN complex; neither says which holds for the human protein; also called hNpl4; source: purified; part of the 'human UN' complex
T2 sequence (Q8TAT6 whole entry): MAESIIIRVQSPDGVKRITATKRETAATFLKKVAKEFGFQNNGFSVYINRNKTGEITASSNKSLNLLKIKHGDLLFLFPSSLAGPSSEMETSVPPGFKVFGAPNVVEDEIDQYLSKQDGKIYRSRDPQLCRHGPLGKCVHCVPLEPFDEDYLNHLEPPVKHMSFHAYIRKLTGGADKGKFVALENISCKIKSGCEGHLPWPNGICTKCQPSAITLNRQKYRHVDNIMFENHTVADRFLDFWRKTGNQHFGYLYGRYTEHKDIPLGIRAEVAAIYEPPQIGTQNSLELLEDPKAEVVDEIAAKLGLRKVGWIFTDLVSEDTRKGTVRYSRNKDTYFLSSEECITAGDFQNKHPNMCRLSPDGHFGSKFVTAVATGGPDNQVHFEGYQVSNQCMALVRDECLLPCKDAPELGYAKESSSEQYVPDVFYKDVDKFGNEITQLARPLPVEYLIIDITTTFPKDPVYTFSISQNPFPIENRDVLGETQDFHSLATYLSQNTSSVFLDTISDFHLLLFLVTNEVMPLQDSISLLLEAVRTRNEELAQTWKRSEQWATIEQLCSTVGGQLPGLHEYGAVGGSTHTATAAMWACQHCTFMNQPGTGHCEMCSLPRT

UBXN7-SBP = molecular target: B1; test: as above
Cdc48-UN ATPase complex = molecular target: T3, Cdc48-UN ATPase complex (S. cerevisiae, UniProt P25694 1-835; P53044 1-361; P33755 1-580); test: pull-down; 1 µM Otu1-C120S-FLAG on anti-FLAG M2 agarose with 1 µM Cdc48, 1 µM UN and 1 µM Ub(n)-TAIL, with or without 1 µM Ubx5, SEC buffer, 5 mM ATPγS, 1 h, 4 °C; eluted with 3xFLAG peptide; fluorescence scan and Coomassie
T3 construct: Cdc48 ATPase of S. cerevisiae, wild type; Ufd1 of S. cerevisiae; Npl4 of S. cerevisiae; also called Cdc48 with the Ufd1-Npl4 (UN) complex; source: E. coli BL21 CodonPlus (DE3) RIPL, purified (Ni-NTA, SEC); Cdc48 and UN mixed; copies: 6 + +
T3 sequence (P25694 whole entry, chain 1 of 3): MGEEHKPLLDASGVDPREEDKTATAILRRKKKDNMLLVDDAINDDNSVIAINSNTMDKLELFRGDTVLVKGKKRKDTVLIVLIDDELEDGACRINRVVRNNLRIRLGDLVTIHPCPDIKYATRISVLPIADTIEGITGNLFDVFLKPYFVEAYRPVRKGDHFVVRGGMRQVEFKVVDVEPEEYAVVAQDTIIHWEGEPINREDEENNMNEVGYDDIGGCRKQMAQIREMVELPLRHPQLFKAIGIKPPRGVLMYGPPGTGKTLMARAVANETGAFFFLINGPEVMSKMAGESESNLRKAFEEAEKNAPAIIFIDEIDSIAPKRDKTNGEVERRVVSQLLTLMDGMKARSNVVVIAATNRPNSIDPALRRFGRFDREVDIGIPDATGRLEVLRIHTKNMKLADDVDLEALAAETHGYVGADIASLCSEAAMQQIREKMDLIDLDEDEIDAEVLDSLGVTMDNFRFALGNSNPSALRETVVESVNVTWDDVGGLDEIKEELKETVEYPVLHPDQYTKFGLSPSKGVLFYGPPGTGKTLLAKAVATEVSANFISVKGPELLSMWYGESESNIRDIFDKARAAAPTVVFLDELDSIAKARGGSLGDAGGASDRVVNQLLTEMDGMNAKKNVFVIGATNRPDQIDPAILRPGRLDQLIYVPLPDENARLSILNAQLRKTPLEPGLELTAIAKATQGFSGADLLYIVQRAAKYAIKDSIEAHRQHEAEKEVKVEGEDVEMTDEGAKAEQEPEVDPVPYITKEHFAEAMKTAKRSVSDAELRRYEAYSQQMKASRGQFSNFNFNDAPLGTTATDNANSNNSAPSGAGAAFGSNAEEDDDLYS
T3 sequence (P53044 whole entry, chain 2 of 3): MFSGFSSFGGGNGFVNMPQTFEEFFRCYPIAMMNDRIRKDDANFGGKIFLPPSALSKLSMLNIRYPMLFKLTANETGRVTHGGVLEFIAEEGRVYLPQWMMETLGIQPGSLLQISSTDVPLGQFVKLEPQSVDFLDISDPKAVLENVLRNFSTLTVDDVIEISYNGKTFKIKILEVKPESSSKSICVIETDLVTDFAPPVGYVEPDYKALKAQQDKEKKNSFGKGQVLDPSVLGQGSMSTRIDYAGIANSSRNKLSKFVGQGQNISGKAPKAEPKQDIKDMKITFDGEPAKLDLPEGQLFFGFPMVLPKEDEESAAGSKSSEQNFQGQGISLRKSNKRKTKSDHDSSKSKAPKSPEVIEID
T3 sequence (P33755 whole entry, chain 3 of 3): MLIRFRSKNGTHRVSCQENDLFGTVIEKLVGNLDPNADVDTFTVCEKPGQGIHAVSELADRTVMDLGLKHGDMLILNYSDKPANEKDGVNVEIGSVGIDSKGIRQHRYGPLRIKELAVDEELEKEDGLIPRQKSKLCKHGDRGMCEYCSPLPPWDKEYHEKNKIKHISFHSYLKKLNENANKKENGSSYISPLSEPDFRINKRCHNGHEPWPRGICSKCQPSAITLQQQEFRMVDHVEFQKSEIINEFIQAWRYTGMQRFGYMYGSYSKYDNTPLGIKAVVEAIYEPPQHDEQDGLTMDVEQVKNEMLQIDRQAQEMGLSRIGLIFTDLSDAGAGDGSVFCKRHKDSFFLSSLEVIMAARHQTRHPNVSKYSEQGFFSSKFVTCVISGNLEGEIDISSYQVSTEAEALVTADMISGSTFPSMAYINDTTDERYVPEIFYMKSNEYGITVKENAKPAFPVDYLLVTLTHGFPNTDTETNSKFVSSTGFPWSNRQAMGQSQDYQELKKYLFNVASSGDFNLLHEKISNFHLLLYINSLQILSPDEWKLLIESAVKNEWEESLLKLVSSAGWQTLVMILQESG

B1: binds (Human p97 ATPase); binds (human Npl4).

B2: Yod1-C160S (enzyme, human, UniProt Q5VVQ6 1-348, looked up)
chain: MFGPAKGRHFGVHPAPGFPGGVSQQAAGTKAGPAGAWPVGSRTDTMWRLRCKAKDGTHVLQGLSSRTRVRELQGQIAAITGIAPGGQRILVGYPPECLDLSNGDTILEDLPIQSGDMLIIEEDQTRPRSSPAFTKRGASSYVRETLPVLTRTVVPADNSSLFTSVYYVVEGGVLNPACAPEMRRLIAQIVASDPDFYSEAILGKTNQEYCDWIKRDDTWGGAIEISILSKFYQCEICVVDTQTVRIDRFGEDAGYTKRVLLIYDGIHYDPLQRNFPDPDTPPLTIFSSNDDIVLVQALELADEARRRRQFTDVNRFTLRCMVCQKGLTGQAEAREHAKETGHTNFGEV
notes: Yod1, human, with the active-site mutation C160S; also called homolog of Otu1; source: E. coli BL21 CodonPlus (DE3) RIPL, purified (Ni-NTA, SEC)
B2: binds (UBXN7-SBP).

B3: Otu1-C120S-FLAG (enzyme, S. cerevisiae, UniProt P43558 1-301, looked up)
chain: MKLKVTGAGINQVVTLKQDATLNDLIEHINVDVKTMRFGYPPQRINLQGEDASLGQTQLDELGINSGEKITIESSDSNESFSLPPPQPKPKRVLKSTEMSIGGSGENVLSVHPVLDDNSSLFHAIAYGIFKQDSVRDLREMVSKEVLNNPVKFNDAILDKPNKDYAQWILKMESWGGAIEIGIISDALAVAIYVVDIDAVKIEKFNEDKFDNYILILFNGIHYDSLTMNEFKTVFNKNQPESDDVLTAALQLASNLKQTGYSFNTHKAQIKCNTCQMTFVGEREVARHAESTGHVDFGQNR
notes: Otu1, deubiquitinating enzyme of S. cerevisiae (Yod1 in mammals), with the active-site mutation C120S; pET28 with an N-terminal His6-tag and a TEV-protease cleavage site followed by a FLAG tag; source: E. coli BL21 CodonPlus (DE3) RIPL, purified (Ni-NTA, SEC)
B3: binds (Cdc48-UN ATPase complex).

— publication PMC13087191 (Scientific Reports, 2026)
